The source of these data is patent publication US20240270821A1, “GIP/GLP1/GCG TRI-RECEPTOR AGONISTS AND USES THEREOF” (priority 2023, published 2024).

Positions count from the first letter of the chain named.

Assay in all cases: cell-based or functional assay
One assay has as its target hGLP-1R (Homo sapiens, UniProt P43220).
In assay [1] the target is human glucagon receptor (human) (UniProt P47871).
In assay [2] the target is T1, human GIP receptor (human) (UniProt P48546).
T1 sequence (looked up): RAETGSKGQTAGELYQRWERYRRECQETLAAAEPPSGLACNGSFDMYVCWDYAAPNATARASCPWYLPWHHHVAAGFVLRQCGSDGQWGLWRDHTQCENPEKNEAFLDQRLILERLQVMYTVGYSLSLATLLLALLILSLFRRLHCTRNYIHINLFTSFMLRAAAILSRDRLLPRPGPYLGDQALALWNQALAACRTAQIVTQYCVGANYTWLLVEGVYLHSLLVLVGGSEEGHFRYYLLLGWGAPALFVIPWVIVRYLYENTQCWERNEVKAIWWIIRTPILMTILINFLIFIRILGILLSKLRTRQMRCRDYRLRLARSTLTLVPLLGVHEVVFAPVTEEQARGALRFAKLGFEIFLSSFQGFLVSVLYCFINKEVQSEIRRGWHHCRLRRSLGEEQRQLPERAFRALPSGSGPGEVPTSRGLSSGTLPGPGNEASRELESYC

Sequence of hGLP-1R (P43220 24-463): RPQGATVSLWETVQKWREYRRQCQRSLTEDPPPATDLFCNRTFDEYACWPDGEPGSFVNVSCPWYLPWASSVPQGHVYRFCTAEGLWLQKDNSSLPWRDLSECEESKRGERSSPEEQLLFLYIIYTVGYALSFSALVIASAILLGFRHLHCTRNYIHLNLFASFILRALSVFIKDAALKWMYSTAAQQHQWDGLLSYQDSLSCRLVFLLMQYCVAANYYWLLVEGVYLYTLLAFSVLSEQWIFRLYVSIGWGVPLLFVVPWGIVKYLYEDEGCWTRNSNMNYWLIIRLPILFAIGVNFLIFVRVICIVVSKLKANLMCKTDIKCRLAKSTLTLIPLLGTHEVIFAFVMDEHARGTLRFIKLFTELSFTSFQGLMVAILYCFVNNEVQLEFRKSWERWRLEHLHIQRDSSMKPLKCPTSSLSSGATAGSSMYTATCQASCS
Sequence of human glucagon receptor (human) (P47871 26-477): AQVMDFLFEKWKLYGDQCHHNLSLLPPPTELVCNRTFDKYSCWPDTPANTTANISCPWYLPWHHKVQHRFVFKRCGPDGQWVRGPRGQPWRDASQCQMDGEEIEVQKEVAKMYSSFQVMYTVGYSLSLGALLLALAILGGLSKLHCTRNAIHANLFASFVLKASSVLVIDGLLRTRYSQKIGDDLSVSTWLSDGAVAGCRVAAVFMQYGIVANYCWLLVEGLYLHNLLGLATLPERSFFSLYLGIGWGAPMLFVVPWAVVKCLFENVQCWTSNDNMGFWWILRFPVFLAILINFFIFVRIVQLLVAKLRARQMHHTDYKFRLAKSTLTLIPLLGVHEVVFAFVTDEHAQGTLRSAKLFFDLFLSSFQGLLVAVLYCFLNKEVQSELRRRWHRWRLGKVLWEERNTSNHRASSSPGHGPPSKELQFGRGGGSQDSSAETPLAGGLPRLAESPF

B1: Example 667 (peptide)
chain: YXQGTXTSDXSILLDKKAQXAFIEXLEEGGPSSGAPPPSGEGE
modifications: synthetic construct; SITE 2: note = 2-Aminoisobutyric Acid; SITE 6: note = alpha-methyl-2-fluoro-L-phenylalanine; SITE 10: note = 3-(4-Pyridyl)-L-alanine; SITE 17: note = Lysine is chemically modified through conjugation of the epsilon-amino group of the Lysine side chain with (gamma-Glu)2-CO-(CH2)1
B1: the cAMP Rel EC50 (1% HSA) with hGLP-1R came to 33 nM; in assay [1] it was 215 nM; in assay [2] it was 1.46 nM.

B2: Example 663 (peptide)
chain: B1 chain with X25Y, E27X, E41T
modifications: synthetic construct; SITE 2: note = 2-Aminoisobutyric Acid; SITE 6: note = alpha-methyl-2-fluoro-L-phenylalanine; SITE 10: note = 3-(4-Pyridyl)-L-alanine; SITE 17: note = Lysine is chemically modified through conjugation of the epsilon-amino group of the Lysine side chain with (2-[2-(2-Amino-ethoxy))
For the molecule B2, the results for the cAMP Rel EC50 (1% HSA) (in the assay with hGLP-1R; in assay [1]; in assay [2]) were 79 nM, 226 nM and 10.2 nM, respectively.

B3: Example 665 (peptide)
chain: B1 chain with K16X, E41T
modifications: synthetic construct; SITE 2: note = 2-Aminoisobutyric Acid; SITE 6: note = alpha-methyl-2-fluoro-L-phenylalanine; SITE 10: note = 3-(4-Pyridyl)-L-alanine; SITE 16: note = L-ornithine; SITE 17: note = Lysine is chemically modified through conjugation of the epsilon-amino group of the Lysine side chai
For B3, the cAMP Rel EC50 (1% HSA) with hGLP-1R is 32.8 nM; in assay [1], 285 nM; in assay [2], 2.1 nM.

B4: Example 664 (peptide)
chain: B1 chain with E41T
modifications: synthetic construct; SITE 2: note = 2-Aminoisobutyric Acid; SITE 6: note = alpha-methyl-2-fluoro-L-phenylalanine; SITE 10: note = 3-(4-Pyridyl)-L-alanine; SITE 17: note = Lysine is chemically modified through conjugation of the epsilon-amino group of the Lysine side chain with (gamma-Glu)2-CO-(CH2)1
For B4, the results for the cAMP Rel EC50 (1% HSA) (in the assay with hGLP-1R; in assay [1]; in assay [2]) were 27.7 nM, 179 nM and 1.18 nM, respectively.

B5: Example 661 (peptide)
chain: B1 chain with X25Y, E27X, E41T
modifications: synthetic construct; SITE 2: note = 2-Aminoisobutyric Acid; SITE 6: note = alpha-methyl-2-fluoro-L-phenylalanine; SITE 10: note = 3-(4-Pyridyl)-L-alanine; SITE 17: note = Lysine is chemically modified through conjugation of the epsilon-amino group of the Lysine side chain with (gamma-Glu)2-CO-(CH2)1
In the case of B5, the cAMP Rel EC50 (1% HSA) amounted to 50.9 nM in the assay with hGLP-1R, 160 nM in assay [1] and 4.62 nM in assay [2].

B6: Example 662 (peptide)
chain: B1 chain with X25Y, E41T
modifications: synthetic construct; SITE 2: note = 2-Aminoisobutyric Acid; SITE 6: note = alpha-methyl-2-fluoro-L-phenylalanine; SITE 10: note = 3-(4-Pyridyl)-L-alanine; SITE 17: note = Lysine is chemically modified through conjugation of the epsilon-amino group of the Lysine side chain with (2-[2-(2-Amino-ethoxy))
Regarding B6, the values for the cAMP Rel EC50 (1% HSA) (with hGLP-1R; in assay [1]; in assay [2]) were 84.5 nM, 561 nM and 4.69 nM, respectively.

B7: Example 666 (peptide)
chain: B1 chain with E41S
modifications: synthetic construct; SITE 2: note = 2-Aminoisobutyric Acid; SITE 6: note = alpha-methyl-2-fluoro-L-phenylalanine; SITE 10: note = 3-(4-Pyridyl)-L-alanine; SITE 17: note = Lysine is chemically modified through conjugation of the epsilon-amino group of the Lysine side chain with (gamma-Glu)2-CO-(CH2)1
As to B7, the cAMP Rel EC50 (1% HSA) amounted to 32.3 nM in the assay with hGLP-1R, 224 nM in assay [1] and 1.39 nM in assay [2].

B8: Example 668 (peptide)
chain: B1 chain with E41G
modifications: synthetic construct; SITE 2: note = 2-Aminoisobutyric Acid; SITE 6: note = alpha-methyl-2-fluoro-L-phenylalanine; SITE 10: note = 3-(4-Pyridyl)-L-alanine; SITE 17: note = Lysine is chemically modified through conjugation of the epsilon-amino group of the Lysine side chain with (gamma-Glu)2-CO-(CH2)1
On to B8, for which the cAMP Rel EC50 (1% HSA) in the assay with hGLP-1R is 27.1 nM; in assay [1], 203 nM; in assay [2], 1.69 nM.

B9: Example 669 (peptide)
chain: B1 chain with E41T
modifications: synthetic construct; SITE 2: note = 2-Aminoisobutyric Acid; SITE 6: note = alpha-methyl-2-fluoro-L-phenylalanine; SITE 10: note = 3-(4-Pyridyl)-L-alanine; SITE 17: note = Lysine is chemically modified through conjugation of the epsilon-amino group of the Lysine side chain with (2-[2-(2-Amino-ethoxy))
Turning to B9, the cAMP Rel EC50 (1% HSA) with hGLP-1R worked out at 27.3 nM; in assay [1] it was 173 nM; in assay [2], 1.41 nM.

B10: Example 61 (peptide)
chain: YXQGTFTSDFSXXLDKKAQXAFIEYLLEXGPSSGAPPPSEG
modifications: synthetic construct; SITE 2: note = 2-Aminoisobutyric Acid; SITE 12: note = L-ornithine; SITE 13: note = alpha-methyl-leucine; SITE 17: note = Lysine is chemically modified through conjugation of the epsilon-amino group of the Lysine side chain with (2-[2-(2-Amino-ethoxy)-ethoxy]-acetyl)-(gamma-Glu)
With B10, the Relative cAMP EC50 turned out to be 2.05 nM in the assay with hGLP-1R, 3.57 nM in assay [1] and 0.122 nM in assay [2]. The cAMP Rel EC50, nM (in the presence of 1% HSA) in the assay with hGLP-1R is 704 nM; in assay [1] it was 1310 nM; in assay [2] it was 55.2 nM.

B11: Example 63 (peptide)
chain: B10 chain with X29G, S39G, E40G, G41E
modifications: synthetic construct; SITE 2: note = 2-Aminoisobutyric Acid; SITE 12: note = L-ornithine; SITE 13: note = alpha-methyl-leucine; SITE 17: note = Lysine is chemically modified through conjugation of the epsilon-amino group of the Lysine side chain with (2-[2-(2-Amino-ethoxy)-ethoxy]-acetyl)-(gamma-Glu)
As for B11, the Relative cAMP EC50 is 4.78 nM in the assay with hGLP-1R, 4.1 nM in assay [1] and 0.255 nM in assay [2]. Further, the cAMP Rel EC50, nM (in the presence of 1% HSA) in the assay with hGLP-1R came out at 348 nM; in assay [1] it was 709 nM; in assay [2], 40.4 nM.

B12: Example 64 (peptide)
chain: YXQGTFTSDFSXXLDKKAQXAFIEYLLEGGPSSGAPPPGGSG
modifications: synthetic construct; SITE 2: note = 2-Aminoisobutyric Acid; SITE 12: note = L-ornithine; SITE 13: note = alpha-methyl-leucine; SITE 17: note = Lysine is chemically modified through conjugation of the epsilon-amino group of the Lysine side chain with (2-[2-(2-Amino-ethoxy)-ethoxy]-acetyl)-(gamma-Glu)
Turning to B12, the Relative cAMP EC50 is 4.08 nM with hGLP-1R, 4.94 nM in assay [1] and 0.309 nM in assay [2]. The cAMP Rel EC50, nM (in the presence of 1% HSA) is 397 nM with hGLP-1R, 626 nM in assay [1] and 24.9 nM in assay [2].

B13: Example 65 (peptide)
chain: B12 chain with G42E
modifications: synthetic construct; SITE 2: note = 2-Aminoisobutyric Acid; SITE 12: note = L-ornithine; SITE 13: note = alpha-methyl-leucine; SITE 17: note = Lysine is chemically modified through conjugation of the epsilon-amino group of the Lysine side chain with (2-[2-(2-Amino-ethoxy)-ethoxy]-acetyl)-(gamma-Glu)
For the molecule B13, the Relative cAMP EC50 was 4.21 nM in the assay with hGLP-1R, 6.49 nM in assay [1] and 0.739 nM in assay [2]. Also, the cAMP Rel EC50, nM (in the presence of 1% HSA) was 462 nM in the assay with hGLP-1R, 808 nM in assay [1] and 30.2 nM in assay [2].

B14: Example 697 (peptide)
chain: YXQGTXTSDXXIXLDXKAQXXFIEXLIEGGPSSGEPPPEGTGE
modifications: synthetic construct; SITE 2: note = 2-Aminoisobutyric Acid; SITE 6: note = alpha-methyl-2-fluoro-L-phenylalanine; SITE 10: note = 3-(4-Pyridyl)-L-alanine; SITE 11: note = alpha-methyl-L-serine; SITE 13: note = alpha-methyl-leucine; SITE 16: note = L-ornithine; SITE 17: note = Lysine is chemically mo
As for B14, the Relative cAMP EC50 with hGLP-1R is 0.235 nM; in assay [1] it was 1.71 nM; in assay [2] it was 0.0109 nM. For the same molecule, the cAMP Rel EC50 (1% HSA) amounted to 18.2 nM with hGLP-1R, 130 nM in assay [1] and 0.607 nM in assay [2].

B15: Example 659 (peptide)
chain: YXQGTXTSDXSILLDKKAQXAFIEYLEEGGPSSGAPPPEGTE
modifications: synthetic construct; SITE 2: note = 2-Aminoisobutyric Acid; SITE 6: note = alpha-methyl-2-fluoro-L-phenylalanine; SITE 10: note = 3-(4-Pyridyl)-L-alanine; SITE 17: note = Lysine is chemically modified through conjugation of the epsilon-amino group of the Lysine side chain with (gamma-Glu)2-CO-(CH2)1
With B15, the cAMP Rel EC50 (1% HSA) with hGLP-1R turned out to be 81.5 nM; in assay [1], 735 nM; in assay [2] it was 5.75 nM.
